Reference: the supplement of paper PMC9112550, “Optimization of the antimicrobial peptide Bac7 by deep mutational scanning” (BMC Biology, 2022)
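Also: peptides expressed intracellularly from a pBAD plasmid library in pooled LB shake-flask culture, induced with 0.3% L-arabinose, DNA abundance read by NGS, three biological replicates, DESeq2 with apeglm shrinkage.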

What follows are sequences tested on Escherichia coli TOP10 (assay: shrunken log2 fold change of peptide-encoding DNA abundance (4.5 h post-induction vs induction); higher = less antimicrobial activity (less host growth inhibition)). Details: time post-induction: 4.5 h; library: site-saturation at positions 5, 18, 19, 20.
RRIRDRPPRLPRPRPRPFYLPRP was tested, and the “shrunken log2 fold change” value was -0.085.
For RRIRPRPPRLPRPRPRPNWAPRP, the “shrunken log2 fold change” value was 0.176.
With RRIRSRPPRLPRPRPRPLESPRP the “shrunken log2 fold change” value was 0.14.
With RRIRDRPPRLPRPRPRPFNNPRP the “shrunken log2 fold change” value was -0.226.
In the case of RRIRCRPPRLPRPRPRPWEFPRP, the “shrunken log2 fold change” value is reported as 0.0363.
RRIRSRPPRLPRPRPRPCPGPRP was tested, and the “shrunken log2 fold change” value was -0.234.
RRIRARPPRLPRPRPRPNVRPRP was tested, and the “shrunken log2 fold change” value was 0.0345.
In the case of RRIRMRPPRLPRPRPRPCKRPRP, the “shrunken log2 fold change” value is reported as 0.00656.
With RRIRLRPPRLPRPRPRPDKYPRP the “shrunken log2 fold change” value was -0.769.
With RRIRWRPPRLPRPRPRPIYHPRP the “shrunken log2 fold change” value was -0.305.
For RRIRIRPPRLPRPRPRPTYKPRP, the “shrunken log2 fold change” value was -1.09.
In the case of RRIRNRPPRLPRPRPRPKLHPRP, the “shrunken log2 fold change” value is reported as -0.0882.
For RRIRHRPPRLPRPRPRPYCGPRP, the “shrunken log2 fold change” value was 0.113.
In the case of RRIRKRPPRLPRPRPRPCIAPRP, the “shrunken log2 fold change” value is reported as -0.0581.
For RRIRIRPPRLPRPRPRPMVEPRP, the “shrunken log2 fold change” value was 3.19.
For RRIRDRPPRLPRPRPRPRCKPRP, the “shrunken log2 fold change” value was -0.0316.
For RRIRNRPPRLPRPRPRPVKSPRP, the “shrunken log2 fold change” value was 0.00699.
RRIRQRPPRLPRPRPRPIMDPRP was tested, and the “shrunken log2 fold change” value was -0.179.
For RRIRRRPPRLPRPRPRPTMVPRP, the “shrunken log2 fold change” value was 0.283.
For RRIRLRPPRLPRPRPRPCGRPRP, the “shrunken log2 fold change” value was 0.147.
For RRIRTRPPRLPRPRPRPMYFPRP, the “shrunken log2 fold change” value was -0.53.
For RRIRKRPPRLPRPRPRPKWSPRP, the “shrunken log2 fold change” value was 0.506.
RRIRLRPPRLPRPRPRPCPRPRP was tested, and the “shrunken log2 fold change” value was 0.0559.
For RRIRRRPPRLPRPRPRPSNTPRP, the “shrunken log2 fold change” value was -0.172.
For RRIRRRPPRLPRPRPRPYPKPRP, the “shrunken log2 fold change” value was -0.0202.
With RRIRQRPPRLPRPRPRPCFLPRP the “shrunken log2 fold change” value was 0.115.
With RRIRFRPPRLPRPRPRPSFDPRP the “shrunken log2 fold change” value was -0.62.
In the case of RRIRTRPPRLPRPRPRPISHPRP, the “shrunken log2 fold change” value is reported as -0.328.
For RRIRRRPPRLPRPRPRPGFGPRP, the “shrunken log2 fold change” value was 0.497.
RRIRNRPPRLPRPRPRPFGEPRP was tested, and the “shrunken log2 fold change” value was -0.0176.
RRIRVRPPRLPRPRPRPAPFPRP was tested, and the “shrunken log2 fold change” value was 0.0259.
For RRIRPRPPRLPRPRPRPNDPPRP, the “shrunken log2 fold change” value was -0.0507.
RRIRHRPPRLPRPRPRPNSAPRP was tested, and the “shrunken log2 fold change” value was -0.0296.
In the case of RRIRHRPPRLPRPRPRPAAFPRP, the “shrunken log2 fold change” value is reported as 0.068.
For RRIRLRPPRLPRPRPRPFKEPRP, the “shrunken log2 fold change” value was -0.169.
For RRIRVRPPRLPRPRPRPGPNPRP, the “shrunken log2 fold change” value was 0.0445.
RRIRVRPPRLPRPRPRPAMMPRP was tested, and the “shrunken log2 fold change” value was 0.464.
RRIRYRPPRLPRPRPRPCIHPRP was tested, and the “shrunken log2 fold change” value was -0.0152.
In the case of RRIRWRPPRLPRPRPRPMCTPRP, the “shrunken log2 fold change” value is reported as 0.356.
For RRIRFRPPRLPRPRPRPQYCPRP, the “shrunken log2 fold change” value was -0.943.
In the case of RRIRIRPPRLPRPRPRPKPNPRP, the “shrunken log2 fold change” value is reported as -0.105.
For RRIRHRPPRLPRPRPRPQFEPRP, the “shrunken log2 fold change” value was -0.0276.
For RRIRFRPPRLPRPRPRPVNTPRP, the “shrunken log2 fold change” value was -0.377.
In the case of RRIRGRPPRLPRPRPRPEMMPRP, the “shrunken log2 fold change” value is reported as 1.3.
With RRIRQRPPRLPRPRPRPSNWPRP the “shrunken log2 fold change” value was -0.227.
In the case of RRIRKRPPRLPRPRPRPDSHPRP, the “shrunken log2 fold change” value is reported as -0.427.
With RRIRFRPPRLPRPRPRPQRCPRP the “shrunken log2 fold change” value was 0.08.
For RRIRIRPPRLPRPRPRPFGSPRP, the “shrunken log2 fold change” value was 0.00777.
With RRIRLRPPRLPRPRPRPHAAPRP the “shrunken log2 fold change” value was -0.343.
RRIRQRPPRLPRPRPRPVDDPRP was tested, and the “shrunken log2 fold change” value was -0.0578.
For RRIRNRPPRLPRPRPRPCHDPRP, the “shrunken log2 fold change” value was -0.0458.
RRIRKRPPRLPRPRPRPMWCPRP was tested, and the “shrunken log2 fold change” value was -0.113.
With RRIRDRPPRLPRPRPRPNTSPRP the “shrunken log2 fold change” value was -0.284.
RRIRTRPPRLPRPRPRPYAFPRP was tested, and the “shrunken log2 fold change” value was -0.17.
For RRIRLRPPRLPRPRPRPIVEPRP, the “shrunken log2 fold change” value was 0.0406.
With RRIRARPPRLPRPRPRPDFGPRP the “shrunken log2 fold change” value was 0.106.
With RRIRTRPPRLPRPRPRPIPVPRP the “shrunken log2 fold change” value was -0.412.
For RRIRERPPRLPRPRPRPETWPRP, the “shrunken log2 fold change” value was -0.0594.
With RRIRRRPPRLPRPRPRPNCYPRP the “shrunken log2 fold change” value was -0.0134.
In the case of RRIRYRPPRLPRPRPRPELYPRP, the “shrunken log2 fold change” value is reported as -0.106.
For RRIRYRPPRLPRPRPRPPFSPRP, the “shrunken log2 fold change” value was -0.285.
With RRIRFRPPRLPRPRPRPFERPRP the “shrunken log2 fold change” value was -0.0442.
In the case of RRIRDRPPRLPRPRPRPANWPRP, the “shrunken log2 fold change” value is reported as 0.239.
With RRIRFRPPRLPRPRPRPIQNPRP the “shrunken log2 fold change” value was -0.544.
In the case of RRIRTRPPRLPRPRPRPEWKPRP, the “shrunken log2 fold change” value is reported as -0.076.
In the case of RRIRARPPRLPRPRPRPVMPPRP, the “shrunken log2 fold change” value is reported as 0.457.
With RRIRMRPPRLPRPRPRPKCDPRP the “shrunken log2 fold change” value was 0.318.
In the case of RRIRFRPPRLPRPRPRPFGHPRP, the “shrunken log2 fold change” value is reported as -0.19.
RRIRYRPPRLPRPRPRPSESPRP was tested, and the “shrunken log2 fold change” value was -0.0299.
In the case of RRIRKRPPRLPRPRPRPWLMPRP, the “shrunken log2 fold change” value is reported as 0.0931.
For RRIRCRPPRLPRPRPRPCVTPRP, the “shrunken log2 fold change” value was 0.0974.
RRIRRRPPRLPRPRPRPMWTPRP was tested, and the “shrunken log2 fold change” value was -0.132.
RRIRPRPPRLPRPRPRPWHFPRP was tested, and the “shrunken log2 fold change” value was -0.12.
In the case of RRIRRRPPRLPRPRPRPFDVPRP, the “shrunken log2 fold change” value is reported as -0.0126.
With RRIRNRPPRLPRPRPRPNELPRP the “shrunken log2 fold change” value was 0.106.
